In patent US20260234222A1 (LEYDEN LABORATORIES B V, published 2026):
Where two headings read alike, the source gives them in different places.

Columns and labels:
SARS-CoV-1 Spike antigen [1] = biological target: T1, SARS-CoV-1 Spike antigen (SARS-CoV-1, UniProt P59594 14-1190); experiment: cell-based or functional assay
MERS-CoV Spike antigen [2] = biological target: T2, MERS-CoV Spike antigen (MERS-CoV, UniProt K9N5Q8 18-1291); experiment: cell-based or functional assay
T2 sequence: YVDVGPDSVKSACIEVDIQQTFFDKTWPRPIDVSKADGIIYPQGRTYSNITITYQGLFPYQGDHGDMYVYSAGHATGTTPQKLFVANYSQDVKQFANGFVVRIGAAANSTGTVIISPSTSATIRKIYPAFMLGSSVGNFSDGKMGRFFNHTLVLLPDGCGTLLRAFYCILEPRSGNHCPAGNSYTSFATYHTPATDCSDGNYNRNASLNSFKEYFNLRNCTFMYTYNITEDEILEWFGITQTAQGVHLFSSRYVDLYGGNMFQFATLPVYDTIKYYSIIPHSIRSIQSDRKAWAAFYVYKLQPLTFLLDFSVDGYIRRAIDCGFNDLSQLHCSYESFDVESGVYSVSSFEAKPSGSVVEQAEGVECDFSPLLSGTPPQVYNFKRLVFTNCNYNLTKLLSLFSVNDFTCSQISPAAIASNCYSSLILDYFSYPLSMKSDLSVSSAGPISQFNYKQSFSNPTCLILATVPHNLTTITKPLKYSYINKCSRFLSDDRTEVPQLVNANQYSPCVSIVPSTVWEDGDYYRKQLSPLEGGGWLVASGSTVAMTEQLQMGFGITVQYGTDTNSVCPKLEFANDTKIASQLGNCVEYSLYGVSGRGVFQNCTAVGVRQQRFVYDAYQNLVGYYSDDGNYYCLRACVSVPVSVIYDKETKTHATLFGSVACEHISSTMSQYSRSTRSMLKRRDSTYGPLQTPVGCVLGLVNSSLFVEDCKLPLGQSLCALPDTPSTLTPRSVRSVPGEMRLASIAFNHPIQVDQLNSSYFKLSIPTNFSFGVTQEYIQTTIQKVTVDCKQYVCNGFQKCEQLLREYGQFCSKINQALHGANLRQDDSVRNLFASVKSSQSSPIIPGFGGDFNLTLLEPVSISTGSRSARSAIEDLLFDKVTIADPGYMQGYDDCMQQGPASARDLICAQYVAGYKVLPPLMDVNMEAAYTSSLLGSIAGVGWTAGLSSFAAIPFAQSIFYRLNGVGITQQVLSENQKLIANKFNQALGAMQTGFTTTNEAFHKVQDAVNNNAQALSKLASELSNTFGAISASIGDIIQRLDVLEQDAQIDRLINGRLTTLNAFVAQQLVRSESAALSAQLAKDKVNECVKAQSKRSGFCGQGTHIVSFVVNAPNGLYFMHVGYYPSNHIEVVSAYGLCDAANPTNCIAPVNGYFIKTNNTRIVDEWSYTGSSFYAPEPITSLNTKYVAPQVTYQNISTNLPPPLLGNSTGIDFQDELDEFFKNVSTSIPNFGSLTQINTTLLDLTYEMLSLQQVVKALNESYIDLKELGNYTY

SARS-CoV-2 Spike antigen [3] = biological target: T3, SARS-CoV-2 Spike antigen (SARS-CoV-2, UniProt P0DTC2 14-1208); experiment: cell-based or functional assay
SARS-CoV-1 Spike antigen [4] = biological target: T1, SARS-CoV-1 Spike antigen; experiment: cell-based or functional assay; remark: listed apart in the source
MERS-CoV Spike antigen [5] = biological target: T2, MERS-CoV Spike antigen; experiment: cell-based or functional assay; remark: listed apart in the source
SARS-CoV-2 Spike antigen [6] = biological target: T3, SARS-CoV-2 Spike antigen; experiment: cell-based or functional assay; remark: listed apart in the source
SARS-CoV-1 Spike antigen [7] = biological target: T1, SARS-CoV-1 Spike antigen; experiment: cell-based or functional assay; remark: listed apart in the source
hCoV-NL63 Spike antigen [8] = biological target: T4, hCoV-NL63 Spike antigen (hCoV-NL63, UniProt Q6Q1S2 19-1291); experiment: cell-based or functional assay
T4 sequence: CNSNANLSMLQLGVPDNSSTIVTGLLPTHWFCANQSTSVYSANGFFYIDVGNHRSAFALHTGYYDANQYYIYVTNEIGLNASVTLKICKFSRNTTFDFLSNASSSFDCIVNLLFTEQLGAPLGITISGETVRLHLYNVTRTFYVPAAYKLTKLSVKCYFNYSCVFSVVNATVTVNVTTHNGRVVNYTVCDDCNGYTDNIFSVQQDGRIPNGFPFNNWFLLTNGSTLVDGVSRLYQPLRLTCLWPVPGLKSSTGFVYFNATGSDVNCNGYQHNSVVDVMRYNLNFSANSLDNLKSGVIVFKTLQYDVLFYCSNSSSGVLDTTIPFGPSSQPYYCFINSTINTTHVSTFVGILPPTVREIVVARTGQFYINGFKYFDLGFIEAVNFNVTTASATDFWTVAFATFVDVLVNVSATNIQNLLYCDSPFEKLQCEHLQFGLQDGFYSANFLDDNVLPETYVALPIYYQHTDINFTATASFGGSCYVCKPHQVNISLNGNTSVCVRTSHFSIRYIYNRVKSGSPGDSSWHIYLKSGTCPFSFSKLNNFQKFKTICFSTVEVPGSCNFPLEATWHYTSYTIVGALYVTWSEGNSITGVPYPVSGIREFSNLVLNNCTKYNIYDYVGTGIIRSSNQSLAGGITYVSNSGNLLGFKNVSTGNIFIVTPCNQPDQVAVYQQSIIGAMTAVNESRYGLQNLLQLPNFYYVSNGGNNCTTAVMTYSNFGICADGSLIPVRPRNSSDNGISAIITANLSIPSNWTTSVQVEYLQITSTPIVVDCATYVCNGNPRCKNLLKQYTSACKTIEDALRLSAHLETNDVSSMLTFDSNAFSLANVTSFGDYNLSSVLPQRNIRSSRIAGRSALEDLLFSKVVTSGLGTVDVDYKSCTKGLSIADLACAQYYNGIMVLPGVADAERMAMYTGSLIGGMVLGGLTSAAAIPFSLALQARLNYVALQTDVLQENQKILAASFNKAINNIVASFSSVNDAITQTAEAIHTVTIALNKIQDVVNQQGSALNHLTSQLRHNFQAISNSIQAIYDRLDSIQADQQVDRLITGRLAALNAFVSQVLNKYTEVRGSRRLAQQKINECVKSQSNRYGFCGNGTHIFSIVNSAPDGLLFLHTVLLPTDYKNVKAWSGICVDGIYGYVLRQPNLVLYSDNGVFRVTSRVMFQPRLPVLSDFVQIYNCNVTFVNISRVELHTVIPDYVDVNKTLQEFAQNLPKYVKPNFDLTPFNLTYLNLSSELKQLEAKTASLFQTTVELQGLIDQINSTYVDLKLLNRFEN

SARS-CoV-2 Spike antigen [9] = biological target: T3, SARS-CoV-2 Spike antigen; experiment: cell-based or functional assay; remark: listed apart in the source
SARS-CoV-2 Spike antigen [10] = biological target: T3, SARS-CoV-2 Spike antigen; experiment: cell-based or functional assay; remark: listed apart in the source
hCoV-NL63 Spike antigen [11] = biological target: T4, hCoV-NL63 Spike antigen; experiment: ELISA, Spike antigen coated on plate

Row | Binder | Live virus neutralization IC50 (SARS-CoV-1 Spike antigen [1]) [µg/mL] | Live virus neutralization IC50 (MERS-CoV Spike antigen [2]) [µg/mL] | Live virus neutralization IC50 (SARS-CoV-2 Spike antigen [3]) [µg/mL] | Live virus neutralization IC50 (SARS-CoV-1 Spike antigen [4]) [µg/mL] | Live virus neutralization IC50 (MERS-CoV Spike antigen [5]) [µg/mL] | Pseudovirion neutralization IC50 (SARS-CoV-2 Spike antigen [6]) [µg/mL] | Pseudovirion neutralization IC50 (SARS-CoV-1 Spike antigen [7]) [µg/mL] | Pseudovirion neutralization IC50 (hCoV-NL63 Spike antigen [8]) [µg/mL] | Live virus neutralization IC50 (SARS-CoV-2 Spike antigen [9]) [µg/mL] | Pseudovirion neutralization IC50 (SARS-CoV-2 Spike antigen [10]) [µg/mL] | binding result (hCoV-NL63 Spike antigen [11])
1 | Bispecific 1 (bispecific antibody) heavy 1: not shown light 1: EIVLTQSPGTLSLSPGERATLSCRASQSVRRNYFAWYQQKRGQAPRLLIYDASTRATGIPDRFSGSGSGTDFTLTISRLEPEDFAVYYCQQYDSSPPMYIFGQGTKLEIKSSASTKGPSVFPLAPSSKSTSGGTAALGCLVKDYFPEPVTVSWNSGALTSGVHTFPAVLQSSGLYSLSSVVTVPSSSLGTQTYICNVNHKPSNTKVDKKVEPKSC heavy 2: not shown light 2: QSALTQPPSASGSPGQSVTISCSGTSSDVGGYNFVSWYQHHPGKAPKILIYEVTKRPSGVPDRFSGSKSGNTASLTVSGLQAEDEADYYCSSYGGTNNLLFGGGTKLTVLGQPKAAPSVTLFPPSSEELQANKATLVCLISDFYPGAVTVAWKADSSPVKAGVETTTPSKQSNNKYAASSYLSLTPEQWKSHRSYSCQVTHEGSTVEKTVAPTECS | 6.67 | 1.32 |  |  |  |  |  |  |  |  | 
2 | Parental mAb 2 (antibody, V domains shown) VH: QMQLMQSGAEVKKPGASVTVSCKASGDTFSDYRIHWVRQAPGQGLEWMGRMNPKSGDTNFAQKFQGRVTMTRDMSINTAYMTLSGLTFDDTALYYCASLLIVGGFDPLDDFEVWGQGTMVTISS VL: QSALTQPPSASGSPGQSVTISCSGTSSDVGGYNFVSWYQHHPGKAPKILIYEVTKRPSGVPDRFSGSKSGNTASLTVSGLQAEDEADYYCSSYGGTNNLLFGGGTKLTVL | 5.94 | 11.6 |  |  |  |  |  |  |  |  | 
3 | Parental mAb 1 (antibody, V domains shown, also called antibody according to the invention; first parental antibody) VH: QEQLVQSGAEVKKPGASVKVSCKSSGFTFSYFYLHWVRQAPGQGLEWMGIINPRGDGTRYAQKFQGRVTMTRDASTGTLYMELRSLRSEDTAVYYCARGADHGAFDIWGQGTMVTVSS VL: EIVLTQSPGTLSLSPGERATLSCRASQSVRRNYFAWYQQKRGQAPRLLIYDASTRATGIPDRFSGSGSGTDFTLTISRLEPEDFAVYYCQQYDSSPPMYIFGQGTKLEIK | 4.18 | 0.86 | 9.87 | 2.73 | 1.49 | 0.072 | 0.588 | > 250 | 6.44 | 0.072 | no binding (tested: 10.0-0.000002 nM)
